From paper doi:10.1101/2025.01.11.632576 (bioRxiv, 2025) come the findings set out here.

Numbering of substitutions follows the chain as printed. In names and notes the source's numbering stands.

Targets include HER2 VHH (2Rs15d) L102A; HER2 VHH (2Rs15d) I29D; HER2 VHH (2Rs15d) L102S.
Holding throughout (assay): SPR
Experiment [1] concerns the target recombinant human HER2 (AA 23-653) (Homo sapiens, UniProt P04626).

With “recombinant human HER2 (AA 23-653) (from UniProt P04626 23-653) (domain or fragment)”, the Kd with HER2 VHH (2Rs15d) L102A worked out at 3.1 nM; in the experiment with HER2 VHH (2Rs15d) I29D it was 3.1 nM; with HER2 VHH (2Rs15d) L102S, 3.6 nM.

B1: HER2 VHH (2Rs15d) Y28K (VHH)
VHH: QVQLQESGGGSVQAGGSLKLTCAASGKIFNSCGMGWYRQSPGRERELVSRISGDGDTWHKESVKGRFTISQDNVKKTLYLQMNSLKPEDTAVYFCAVCYNLETYWGQGTQVTVSS
As for B1, the binding result in experiment [1] was “binds”.

B2: HER2 VHH (2Rs15d) N101D (VHH)
VHH: B1 VHH with K27Y, N100D
As for B2, the binding result in experiment [1] is “binds”.

B3: HER2 VHH (2Rs15d) Y28S (VHH)
VHH: B1 VHH with K27S
B3: the binding result in experiment [1] is reported as “binds”.

B4: HER2 VHH (2Rs15d) G54A (VHH)
VHH: B1 VHH with K27Y, G53A
On to B4, for which the binding result in experiment [1] is recorded as “binds”.

B5: HER2 VHH (2Rs15d) T58K (VHH)
VHH: B1 VHH with K27Y, T57K
Consider B5, for which the binding result in experiment [1] is on record as “binds”.

B6: HER2 VHH (2Rs15d) T58S (VHH)
VHH: B1 VHH with K27Y, T57S
Take B6: in experiment [1], the binding result is “binds”.

B7: HER2 VHH (2Rs15d) Y28A (VHH)
VHH: B1 VHH with K27A
Consider B7, for which the binding result in experiment [1] is reported as “binds”.

B8: HER2 VHH (2Rs15d) T58A (VHH)
VHH: B1 VHH with K27Y, T57A
For B8, the binding result in experiment [1] is listed as “binds”.

B9: HER2 VHH (2Rs15d) D55K (VHH)
VHH: B1 VHH with K27Y, D54K
As for B9, the binding result in experiment [1] is “binds”.

B10: HER2 VHH (2Rs15d) S32K (VHH)
VHH: B1 VHH with K27Y, S31K
As for B10, the Kd in experiment [1] stood at 31 nM.

B11: HER2 VHH (2Rs15d) G54D (VHH)
VHH: B1 VHH with K27Y, G53D
As for B11, the binding result in experiment [1] was “binds”.

B12: HER2 VHH (2Rs15d) T58D (VHH)
VHH: B1 VHH with K27Y, T57D
In the case of B12, in experiment [1], the binding result is listed as “binds”.

B13: HER2 VHH (2Rs15d) G54K (VHH)
VHH: B1 VHH with K27Y, G53K
On to B13, for which the binding result in experiment [1] was “binds”.

B14: HER2 VHH (2Rs15d) G54S (VHH)
VHH: B1 VHH with K27Y, G53S
Turning to B14, the binding result in experiment [1] is recorded as “binds”.

B15: HER2 VHH (2Rs15d) Y28D (VHH)
VHH: B1 VHH with K27D
In the case of B15, in experiment [1], the binding result is listed as “binds”.
